Laboratory results reported in PMC12057046, “Elucidation of short linear motif-based interactions of the MIT and rhodanese domains of the ubiquitin-specific protease 8” (Biology Direct, 2025).

B1: KIAA1614 peptide 568-583 (uncharacterized protein KIAA1614), 16-mer library wild type / USP8 rhodanese domain (ubiquitin carboxyl-terminal hydrolase 8, residues 174-317) (parent)
chain 1: GMERVLGGLSSPLRLL
chain 2: KCETKEKGAITAKELYTMMTDKNISLIIMDARRMQDYQDSCILHSLSVPEEAISPGVTASWIEAHLPDDSKDTWKKRGNVEYVVLLDWFSSAKDLQIGTTLRSLKDALFKWESKTVLRNEPLVLEGGYENWLLCYPQYTTNAKV

Variants of: B1
Assay: peptide-phage display deep mutational scan (M13, 16-mer library, displayed with a C-terminal GGGSG linker encoded by the 3' flank) selected against the GST-tagged USP8 rhodanese domain, four rounds; NGS counts summed over selection …
Conditions: with USP8 rhodanese domain (ubiquitin carboxyl-terminal hydrolase 8, residues 174-317), 10 µg GST-bait on MaxiSorp, pre-cleared on GST, 2 h at 4 °C, five washes with 0.05% Tween 20 in PBS, not graded, scale: average over two replicas of the peptide's fractional NGS count

Screen value, by site and new letter:
chain 1 S11: V 2.18e-05, E 0.000128, Y 6.32e-06, D 0.0401, F 2.53e-05, T 0.000682, A 1.26e-05, N 0.0195, R 6.32e-06
chain 1 R4: T 6.32e-06, A 1.55e-05, L 1.26e-05, W 5.05e-05, N 1.9e-05
chain 1 M2: Y 0.00188
chain 1 S10: H 0.00191, E 1.55e-05, P 1.55e-05, A 6.32e-06, V 6.32e-06, I 6.32e-06
chain 1 R14: K 0.000355, T 0.00135, F 0.00138, M 0.0219, H 0.000346, S 0.00245, Y 0.000377, A 0.00719, V 0.0436, Q 3.44e-05, L 0.000793, E 1.9e-05, N 5.27e-05, I 0.00646, G 1.9e-05, W 0.00337
chain 1 P12: S 0.000236, Q 6.32e-06, R 1.26e-05, T 1.55e-05, L 6.32e-06
chain 1 V5: P 0.00189, A 0.000433, Q 0.014, H 0.0085, W 0.011, T 0.0104, M 0.00268, I 9.76e-05, E 0.0217, S 0.000158, R 0.000121, K 6.6e-05, D 0.0242, F 0.0191, G 0.00207, N 0.00579, L 0.000344, Y 0.00426
